The target of series [1] is T1, CD5L (CD5 antigen-like) (Homo sapiens, UniProt O43866 O43866:20-347).
T1 sequence: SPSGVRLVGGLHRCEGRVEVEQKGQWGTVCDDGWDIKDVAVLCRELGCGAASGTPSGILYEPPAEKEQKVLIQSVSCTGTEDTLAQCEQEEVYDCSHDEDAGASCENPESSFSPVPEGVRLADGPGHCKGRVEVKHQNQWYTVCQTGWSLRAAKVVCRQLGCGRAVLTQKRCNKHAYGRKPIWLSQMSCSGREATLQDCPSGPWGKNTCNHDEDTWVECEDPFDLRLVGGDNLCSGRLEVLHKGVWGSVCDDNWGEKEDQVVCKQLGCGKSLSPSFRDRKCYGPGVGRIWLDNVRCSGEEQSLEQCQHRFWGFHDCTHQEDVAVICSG
The experiment in a line: MST; pH 7.4, 1 mM MgCl2, 0.1% Tween20. As to conditions: tags: His-tagged, Sino Biological 10791-H08H; fluorescently labeled for MST except with Cy5-S76.T; predicted hairpin. On the procedure: (§1) Regarding the three sequences of the second selection, S11 and S23 sequences were incubated with constant concentration (1 nM) of labeled CD5L purified recombinant protein (Sino Biological Inc., Beijing, China) or labeled VEGF scrambled protein used as negative control (R&D System). S11 and S23 were diluted 1:1 (from 15000 to 0.05 nM) in binding buffer (pH 7.4, 1 mM MgCl2, 0.1% Tween20). S76 sequence was diluted 1:1 in Tris-buffered saline (TBS) from 1000 nM to 0.03 nM. S76.T was labeled with Cy5 and the concentration was kept constant at 2 nM. CD5L was diluted from 2000 nM to 0.06 nM in 50 mM Tris-HCl pH 7.8, 150 mM NaCl, 0.05% Tween20. 5 μl of each dilution step were mixed with 5 μl of the labeled CD5L or VEGF. The final reaction mixture contained a respective amount of aptamer sequences and constant 1 nM labeled CD5L or VEGF.

Series [2] deals with T1, CD5L (CD5 antigen-like). Description: MST; 50 mM Tris-HCl pH 7.8, 150 mM NaCl, 10 mM MgCl2, 0.05% Tween-20; 2 nM Cy5-S76.T. As to conditions: tags: His-tagged, Sino Biological 10791-H08H; fluorescently labeled for MST except with Cy5-S76.T; label: Cy5 (MST); hairpin. On the procedure:
For Cy5 labeled S76.T, a serial dilution of CD5L was prepared in the buffer composed by 50 mM Tris-HCl pH7.8, 150 mM NaCl, 10 mM MgCl2, 0.05 Tween-20. The highest concentration of CD5L was 2000 nM and the lowest 0.06 nM. 4 μl of each dilution step were mixed with 4 μl of the Cy5 labeled S76 truncated (4 nM stock). The final reaction mixture, which was filled in standard capillaries, contained a respective amount of CD5L (max. conc. 1000 nM, min conc. 0.03 nM) and constant 2 nM labeled S76 truncated MST measurement was obtained using Monolith NT.115 (NanoTemper Technologies GmbH, Munich, Germany) with standard capillaries. KD was determined as described by (Stoltenburg et al., 2015).

Series [3] has as its target T1, CD5L (CD5 antigen-like). Description: MST; TBS; 1 nM labeled CD5L. The following applies: tags: His-tagged, Sino Biological 10791-H08H; fluorescently labeled for MST except with Cy5-S76.T; predicted hairpin. On the procedure: as §1
Series [4] concerns the target T1, CD5L (CD5 antigen-like). Description: MST; PBS pH 7.4, 1 mM MgCl2, 0.05% Tween20. As to conditions: tags: His-tagged, Sino Biological 10791-H08H; fluorescently labeled for MST except with Cy5-S76.T; three predicted hairpins followed by single-strand ends. On the procedure: A serial dilution of S5, S47, S63 and S72 was prepared in specific buffer composed by PBS pH 7.4, 1 mM of MgCl2 and 0.05% Tween20. The highest concentration used was 18000 nM and the lowest 0.54 nM. 4 μl of each dilution step were mixed with 4 μl of the labeled molecule CD5L purified recombinant protein (Sino Biological Inc., Beijing, China) or VEGF scrambled protein used as negative control (R&D System) (constant concentration of 12.5 nM).

In patent US20230167453, “RNA APTAMERS AND USE THEREOF FOR TREATING CANCER” (Board of Regents, The University of Texas System, published 2023) one finds Kd data, which are given here for five molecules.

B1: S11 (ssRNA)
RNA: AGACAAGAAUAAACGCUCAAUUAUCGGAGAGGCCGAACAGAUACUUCGUUAGACACCUUGCAGCGUUCGACAGGAGGC
modifications: 2'-F pyrimidines
On to B1, for which, in the series with CD5L (CD5 antigen-like) [1], the dissociation constant Kd was 59.2 nM.
In the series with CD5L (CD5 antigen-like) [2], AGGUUGCAGCGUUCGACAGGAGGCUCACAACAG (ssRNA, 2'-F pyrimidines) [S76.T] came in with a Kd of 10.1 nM.

B2: S76 (ssRNA)
RNA: AGACAAGAAUAAACGCUCAAUUAUCGGAGAGGCCGAACAGAUACUUCGUUAGACAGGUUGCAGCGUUCGACAGGAGGCUCACAACAGGC
modifications: 2'-F pyrimidines
In the case of B2, the Kd with CD5L (CD5 antigen-like) [3] is 2.2 nM.

B3: S5 (ssRNA)
RNA: AGACAAGAAUAAACGCUCAAGCGAAGGUGUGACCACAAACCACAUAAAGGCAAGGUCGCGCCGCGUUCGACAGGAGGCUCACAACAGGC
modifications: 2'-F pyrimidines
B3: the Kd in the series with CD5L (CD5 antigen-like) [4] is 556 nM.

B4: S23 (ssRNA)
RNA: AGACAAGAAUAAACGCUCAAAAAGAGAGAAGGAUAAGAACCAUCAAAAAGAGAGAGCAGAGCCAGAUUCGACAGGAGGCUCACAACAGGC
modifications: 2'-F pyrimidines
As to B4, the Kd with CD5L (CD5 antigen-like) [1] was 92.1 nM.

One may read the Kd as the equilibrium constant for the complex coming apart.
